Holding throughout (assay): UV ligand exchange ELISA; exchange yield grade
(In an ELISA, binding on a coated surface is turned into a signal by an enzyme label.)

In one assay the target is T1, HLA-A*02:01 (human).
T1 construct: Peptide-receptive MHC class I monomer made by UV cleavage of a UV-sensitive ligand
The method, boiled down: (§1)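 Peptide-MHC complexes formed by UV-triggered exchange of a cleavable ligand for the test peptide. Exchange yield measured on streptavidin-coated plates by HRP anti-β2m ELISA (1 h, 37 °C; A450) on 100-fold diluted samples. Refolded HLA-A*02:01 monomers at 15-500 ng/ml served as standards.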

In the next assay the target is T2, HLA-A*24:02 (human).
T2 construct: Peptide-receptive MHC class I monomer made by UV cleavage of a UV-sensitive ligand
In short, it runs like this:
as §1

The next assay deals with T3, HLA-A*01:01 (human).
T3 construct: Peptide-receptive MHC class I monomer made by UV cleavage of a UV-sensitive ligand
In short, it runs like this:
as §1

For another assay, the target named is T4, HLA-A*03:01 (human).
T4 construct: Peptide-receptive MHC class I monomer made by UV cleavage of a UV-sensitive ligand
The method, boiled down:
as §1

Peptide exchange yield data for 65 molecules are collected here from US20180291083A1 (IMMATICS BIOTECHNOLOGIES, published 2018).

Consider FLFDKLLLI, for which the peptide exchange yield with HLA-A*02:01 is more than 75%.

On to YYLSHLERI, for which, in the assay with HLA-A*24:02, the peptide exchange yield is more than 75%.

In the assay with HLA-A*24:02, TYVENLRLL came in with a peptide exchange yield of 50 to 75%.

YVDAGTPMY: the peptide exchange yield in the assay with HLA-A*01:01 lay within 50 to 75%.

Turning to YLLPSVVLL, the peptide exchange yield in the assay with HLA-A*02:01 was more than 75%.

RYLDEINLL: the peptide exchange yield in the assay with HLA-A*24:02 fell in the range of 50 to 75%.

On to IYFSNTHFF, for which the peptide exchange yield in the assay with HLA-A*24:02 was 50 to 75%.

In the assay with HLA-A*01:01, YTDKKSIIY came in with a peptide exchange yield of 50 to 75%.

With ITDIHIKY, in the assay with HLA-A*01:01, the peptide exchange yield was more than 75%.

Regarding KLLGYDVHV, the peptide exchange yield in the assay with HLA-A*02:01 lay within 50 to 75%.

In the assay with HLA-A*24:02, KYSSGFRNI showed a peptide exchange yield of 50 to 75%.

Regarding AAADHHSLY, in the assay with HLA-A*01:01, the peptide exchange yield was in the range of 50 to 75%.

In turn, SVADIRNAY registered a peptide exchange yield with HLA-A*01:01 of 20 to 50%.

In turn, FLLPKVQSI had a peptide exchange yield in the assay with HLA-A*02:01 of more than 75%.

Regarding ISEAGKDLLY, the peptide exchange yield in the assay with HLA-A*01:01 is 50 to 75%.

FTDIDGQVY displayed a peptide exchange yield in the assay with HLA-A*01:01 of 50 to 75%.

Take FLLPKVQSIQL: in the assay with HLA-A*02:01, the peptide exchange yield was 50 to 75%.

Consider KLGPVAVSI, for which, in the assay with HLA-A*02:01, the peptide exchange yield was more than 75%.

For the molecule SLFEGIYTI, the peptide exchange yield in the assay with HLA-A*02:01 is more than 75%.

In the case of KAYNRVIFV, the peptide exchange yield with HLA-A*02:01 is 50 to 75%.

Molecule VMLQINPKL showed a peptide exchange yield with HLA-A*02:01 of 50 to 75%.

In the assay with HLA-A*24:02, LYSDIGHLL had a peptide exchange yield of 50 to 75%.

In turn, VTEGVAQTSFY had a peptide exchange yield in the assay with HLA-A*01:01 of more than 75%.

As for FMDSESFYY, the peptide exchange yield with HLA-A*01:01 lay within 10 to 20%.

IFKEHNFSF gave a peptide exchange yield in the assay with HLA-A*24:02 of more than 75%.

As to KYLADLPTL, in the assay with HLA-A*24:02, the peptide exchange yield is more than 75%.

ALDQNKMHY yielded a peptide exchange yield in the assay with HLA-A*01:01 of 50 to 75%.

In the assay with HLA-A*01:01, HVDQDLTTY had a peptide exchange yield of 20 to 50%.

For YINPAKLTPY, in the assay with HLA-A*01:01, the peptide exchange yield lay in the range of 20 to 50%.

In the assay with HLA-A*24:02, IFVARLYYF registered a peptide exchange yield of more than 75%.

For the molecule LYQDRFDYL, in the assay with HLA-A*24:02, the peptide exchange yield is more than 75%.

As to EYNTIKDKF, the peptide exchange yield with HLA-A*24:02 lay within 50 to 75%.

YSDIGHLL displayed a peptide exchange yield in the assay with HLA-A*01:01 of 20 to 50%.

VFLPSEGFNF: the peptide exchange yield in the assay with HLA-A*24:02 lay in the range of 50 to 75%.

Molecule KLSDNILKL yielded a peptide exchange yield with HLA-A*02:01 of more than 75%.

With SFQSKATVF, in the assay with HLA-A*24:02, the peptide exchange yield is 20 to 50%.

With SLMDLQERL, in the assay with HLA-A*02:01, the peptide exchange yield lay within 50 to 75%.

Molecule VTEEPQRLFY showed a peptide exchange yield in the assay with HLA-A*01:01 of more than 75%.

As to RLIAKEMNI, in the assay with HLA-A*02:01, the peptide exchange yield was more than 75%.

Turning to ILAAVETRL, the peptide exchange yield in the assay with HLA-A*02:01 lay in the range of 50 to 75%.

Regarding AMPDSPAEV, the peptide exchange yield in the assay with HLA-A*02:01 was more than 75%.

For the molecule TYPQLEGFKF, the peptide exchange yield with HLA-A*24:02 was more than 75%.

As to STDSAGSSY, the peptide exchange yield in the assay with HLA-A*01:01 is more than 75%.

Consider SLYVQQLKI, for which the peptide exchange yield with HLA-A*02:01 was more than 75%.

With SYADNILSF, in the assay with HLA-A*24:02, the peptide exchange yield is more than 75%.

On to RYLGKNWSF, for which, in the assay with HLA-A*24:02, the peptide exchange yield was more than 75%.

For FLINTNSEL, in the assay with HLA-A*02:01, the peptide exchange yield is more than 75%.

Consider ILHAQTLKI, for which the peptide exchange yield with HLA-A*02:01 lay within 50 to 75%.

In the case of YSDKEFAGSY, the peptide exchange yield with HLA-A*01:01 was more than 75%.

In the assay with HLA-A*01:01, YSHPQYSSY had a peptide exchange yield of 20 to 50%.

LTEGHSGNYY: in the assay with HLA-A*01:01, the peptide exchange yield was in the range of 50 to 75%.

TFDLTVVSY gave a peptide exchange yield in the assay with HLA-A*01:01 of 20 to 50%.

As for RSDPGGGGLAY, in the assay with HLA-A*01:01, the peptide exchange yield lay in the range of 50 to 75%.

Molecule FSLEDLVRI showed a peptide exchange yield with HLA-A*02:01 of 20 to 50%.

The molecule KYIEYYLVL registered a peptide exchange yield in the assay with HLA-A*24:02 of more than 75%.

In the case of LTDSEKGNSY, in the assay with HLA-A*01:01, the peptide exchange yield is 50 to 75%.

In the assay with HLA-A*03:01, SISNLVFTY came in with a peptide exchange yield of 20 to 50%.

Regarding FAFSGVLRA, in the assay with HLA-A*02:01, the peptide exchange yield lay within 20 to 50%.

Turning to WIGDKSFEY, the peptide exchange yield with HLA-A*01:01 lay in the range of 20 to 50%.

Consider ATDIVDSQY, for which the peptide exchange yield in the assay with HLA-A*01:01 lay in the range of 50 to 75%.

GTDVLSTRY gave a peptide exchange yield in the assay with HLA-A*01:01 of 50 to 75%.

In the case of YLNEKSLQL, in the assay with HLA-A*02:01, the peptide exchange yield is more than 75%.

As for LLNRHILAH, the peptide exchange yield with HLA-A*03:01 is 50 to 75%.

Consider RFYLLTEHF, for which the peptide exchange yield in the assay with HLA-A*24:02 is 50 to 75%.

Regarding SLADVHIEV, in the assay with HLA-A*02:01, the peptide exchange yield is more than 75%.
